Patent US20190032033A1

Molecular target: β1AR-84 (minimally thermostabilised turkey β1 adrenergic receptor construct) (turkey), P07700
Test: cell-based or functional assay

Chain of β1AR-84 (minimally thermostabilised turkey β1 adrenergic receptor construct) (turkey), P07700 (P07700 other isoform, or with tags, fused parts or gaps): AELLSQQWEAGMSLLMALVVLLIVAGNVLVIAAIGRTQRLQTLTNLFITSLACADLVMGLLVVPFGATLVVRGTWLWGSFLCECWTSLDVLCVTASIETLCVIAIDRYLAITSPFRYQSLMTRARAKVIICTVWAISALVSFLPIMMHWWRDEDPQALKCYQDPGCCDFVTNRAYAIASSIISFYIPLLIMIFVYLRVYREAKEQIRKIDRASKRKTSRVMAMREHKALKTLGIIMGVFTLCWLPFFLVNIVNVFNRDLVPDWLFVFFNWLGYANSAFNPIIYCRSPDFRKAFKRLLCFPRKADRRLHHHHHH

- isoprenaline Ki of DDM-solubilised β1AR-84 (alone […] µM): 0.0047 µM
- isoprenaline Ki of membrane-embedded β1AR-84 (alone […] µM): 0.0036 µM
- isoprenaline Ki of β1AR-84 with 0.25 mM GTPγS (alone 3.0 µM): 5.2 nM
B1: Mini Gs393, P04896 26-394 (protein)
chain: GIEKQLQKDKQVYRATHRLLLLGADNSGKSTIVKQMRILHGGSGGSGGTSGIFETKFQVDKVNFHMFDVGGQRDERRKWIQCFNDVTAIIFVVDSSDYNRLQEALNDFKSIWNNRWLRTISVILFLNKQDLLAEKVLAGKSKIEDYFPEFARYTTPEDATPEPGEDPRVTRAKYFIRDEFLRISTASGDGRHYCYPHFTCAVDTENARRIFNDCRDIIQRMHLRQYELL
